In the DeepSol protein solubility set:

Test: soluble on expression in E. coli; label from the status in PepcDB or PDB records

Sequence	soluble on expression in E. coli
MTSDTIRQTLDELLLDKNGGSSNEARAFFLSQIIDQLKLISSQTDAERQLQKLQLKDPNDNIVKATPPPPPPPPPLISILQQAPPPPPPPPPPTLKAPPPPPILGLKTPSKSLKTPTPRPKECPTSFLPKKEKKTKTRTVQWSKINASVVQDDSVWGKLAKASNVDIDFDLLDNFFGIESLAVSGAAEVVKVGILRALGKNYKKISKKIFNPKKHFFFLLKISNSLNFQKSTRKDAHVELLTAKRSQNVAIMLKQFKNIDELIDDVSQNKPVAEIDALQNLFGMLPQSEEEEALRRYTGDISLLSPPSSFFYRLVQIQFYRLRIETQIFLSDFSRLMRELAPNVEILIRTSQEILTSPTLPRLLLIFVNMGNYLNGNNSQGNAFGFTLNSLWKLIDLKGNKQEFSLLHLLVTCEPDLVAHLQEELSTLKDASQISFDEIKISLKTLRDGRCKLEKQLETCSGASFTQFLELIKIDCKFELDEFGANYDKLTELQYQLADYFCENRNTFQLDECLKIFNFLMNRLQQTLKEHVTRETRKLKKEEKKETQTTRECEKTMKKPEKIDLFDALTASNGGPESPRKRAAGILDMRQKLGNVRIRKLRDVTTLESSFTPPPPPPLESPTDSTSSKENESVKPAKTSTNYEMCNDLESYITSLTRKRASHLPKAPPKEEPKLPEVLPEKSKIALKIEKIPEKIDKPPLPQAAPIIPKLPQKSIKAPSTVTTRSKVPPPTAAAAVRIVSVTTTTTPTKTAELRKPGARSPKTTVATVPKVTVVPVSRVPVAPSTPLSRRMSAPVVRKPTMTAEKKREITMKPSVSTSARPSLINTSSHPMVRSPLPKMSVLEKPKPLRITRPTVIPQSPTVTSSARPSGLRQPAKPKWV	not soluble
MTSGANSSGSYLPSEIRSSKIDDNYLKELNEDLKLRKQELLEMLKPLEDKNNLLFQKLMSNLEEKQRSLQIMRQIMAGKGCEESSVMELLKEAEEMKQNLERKNKMLRKEMEMLWNKTFEAEELSDQQKAPQTKNKADLQDGKEKQQRKMEWVKYQEQNNILQNDFHGKVIELRIEALKNYQKANDLKLSLYLQQNFEPMQAFLNLPGSQGIRIV	not soluble
MTSGLERLSNLLSKKDSVFVSDLLREAKVNELDETLSTTRLNHLIDKGYERITLQLDLGGESPGYLEKDKHYREADAALLNVIYPTNLSKINTRRKEQV	not soluble
MTSIRKWQVGESLPEVTLAPVSRLDLIKYAGASGDYNPIHTIDEEAKKAGLPGIIAHGMWTMGNLAKLFTPYYEEGFVQDYFVRFQSMVFLNDVITLKATVKEKDKKAIRFAVAAVNQHGKEVIKGEAVFSLYE	not soluble
MTSSNEKLPKINHDNEVFALLYKILSSEVQTIKGEDNEKVNQLRVDITISEISQLTDKMKKAFLEQPALLEISNEPITVVADMHGQSIHLLRIFLTNEAPPNQKYLFLGDYVDRGSQSVVVMCLLFCMKHRYPQHVFLLRGNHEDVNTTLNYGFYDECLEQWKNDEGEKVWRMFIDTFNCMPLAAVIGGKVFCAHGGISPWLESLEDINSIERPLVVPPYGLACDLLWSDPAQPERNGWGLSHRGISFTYGKSVVEEFCAKNDIALVIRGHQLFKEMYPQGCVLRFGGRLISLFSALNYEGHKNNSSVLKLEFVGQRVKVKQVLYRCRHYAPLRSNEYLGFRDMKSSSGKNEKRKKGRLESLLG	not soluble
MTSVGVPIKILHEAEGHMVTLETVTGEVYRGKLSEAEDNMNCQLAETVVTFRDGRSHQLDNVFIRGNKIRFMILPDMLKNAPMFKNIGRAQKGAIGMGLGGLDQRGRGRGTAFRRPMGRGGPRGMSRPGGAPTFRG	not soluble
MTSVNLSYPIGEYKPRESISKEQKDKWIQVLEEVPAKLKQAVEVMTDSQLDTPYRDGGWTVRQVVHHLADSHMNSYIRFKLSLTEETPAIRPYDEKAWSELKDSKTADPSGSLALLQELHGRWTALLRTLTDQQFKRGFYHPDTKEIITLENALGLYVWHSHHHIAHITELSRRMGWS	soluble
MTTCGEFLVKQLEAWGVETVFGIPGVHTVELYRGLPGSRIRHVTPRHEQGAGFMADGYARVTGKPGVCFIITGPGMTNILTAMAQAYADSIPMLVISSVNERARLAHGNGYLHELPNQRNLVGNVCAFSHTLMSAEELPAVLARAFAVFDSERPRPVHIELPLDVITAPAEHLALRPRTVTSRPAPALAPLREAAARLRNAKKPLLLLGGGCVEAAAEARALAAALDAPTALTINAKGLLPADHPLLLGSNQSCVPVRELATEADVVLAIGTELGETDYDVVFDGGFALDGELIRIDIDPQQLMRNYTPSLAIHSDARLAMRVLLAELPGGEASPDSPGARRAAAVRQRLAEDFAGWSHYRQLFAAILAEWPDARFVGDSTQTVYSGNHLVDLDEPRRWFNASTGYGTLGYGLPAAIGAKLGEPGRPVVSLMGDGGLQFTLPELASAVEAKVGIVVLLWNNHGYGEIKRYMERREITPLGVDIYTPDFLAIARGFGCAAERARDLEHLRELLRGAPADRPLIVEVLQAAPFHP	not soluble
MTTFERIKKLSAKKGITISQLTSELEMGENSIYRWKTQKPALDKLQKVADYFNVSIDYLLGRTDNPQIDSDIPPEATTLAAHIDPAATEEDMKKILEYIDFIQQKYK	not soluble
MTTILTYPFKNLPTASKWALRFSIRPLSCSSQLRAAPAVQTKTKKTLAKPNIRNVVVVDGVRTPFLLSGTSYKDLMPHDLARAALTGLLHRTSVPKEVVDYIIFGTVIQEVKTSNVAREAALGAGFSDKTPAHTVTMACISANQAMTTGVGLIASGQCDVIVAGGVELMSDVPIRHSRKMRKLMLDLNKAKSMGQRLSLISKFRFNFLAPELPAVSEFSTSETMGHSADRLAAAFAVSRLEQDEYALRSHSLAKKAQDEGLLSDVVPFKVPGKDTVTKDNGIRPSSLEQMAKLKPAFIKPYGTVTAANSSFLTDGASAMLIMAEEKALAMGYKPKAYLRDFMYVSQDPKDQLLLGPTYATPKVLEKAGLTMNDIDAFEFHEAFSGQILANFKAMDSDWFAENYMGRKTKVGLPPLEKFNNWGGSLSLGHPFGATGCRLVMAAANRLRKEGGQYGLVAACAAGGQGHAMIVEAYPK	not soluble
MTTKEFEDTWAYNTIGSPFPDNPVRVKGQQNMYVALWYKFGKPIHGRAWNDNGNVECSFPYNKVELTGARDLGGQIQILTATEQDPTEQFKKTGFWYEWRPYKDRVNDQLLQLVRCGQSTPVIMKTKDGKDLLGYIDMSTEVAAVGVSGKSEQVAGGPIQDMLVLFRNVKAPPKGIKIYDDTWLDLKYRDPFPAARNPIAAGGRKVKSDDGTEMFQYVALWYEHGQPVFGRAYPDSADKTLANFGWGGQENAGAEIGSFQMLVVPDPDILGFEYKWIPYKEAKAGGPFKPLHVGECTPCLLKDANGTERLGNLHMGMEKATAGLAGKDSAVSGPAVGDFLVLCRN	soluble
MTTLKLDTLSDRIKAHKNALVHIVKPPVCTERAQHYTEMYQQHLDKPIPVRRALALAHHLANRTIWIKHDELIIGNQASEVRAAPIFPEYTVSWIEKEIDDLADRPGAGFAVSEENKRVLHEVCPWWRGQTVQDRCYGMFTDEQKGLLATGIIKAEGNMTSGDAHLAVNFPLLLEKGLDGLREEVAERRSRINLTVLEDLHGEQFLKAIDIVLVAVSEHIERFAALAREMAATETRESRRDELLAMAENCDLIAHQPPQTFWQALQLCYFIQLILQIESNGHSVSFGRMDQYLYPYYRRDVELNQTLDREHAIEMLHSCWLKLLEVNKIRSGSHSKASAGSPLYQNVTIGGQNLVDGQPMDAVNPLSYAILESCGRLRSTQPNLSVRYHAGMSNDFLDACVQVIRCGFGMPAFNNDEIVIPEFIKLGIEPQDAYDYAAIGCIETAVGGKWGYRCTGMSFINFARVMLAALEGGHDATSGKVFLPQEKALSAGNFNNFDEVMDAWDTQIRYYTRKSIEIEYVVDTMLEENVHDILCSALVDDCIERAKSIKQGGAKYDWVSGLQVGIANLGNSLAAVKKLVFEQGAIGQQQLAAALADDFDGLTHEQLRQRLINGAPKYGNDDDTVDTLLARAYQTYIDELKQYHNPRYGRGPVGGNYYAGTSSISANVPFGAQTMATPDGRKAHTPLAEGASPASGTDHLGPTAVIGSVGKLPTAAILGGVLLNQKLNPATLENESDKQKLMILLRTFFEVHKGWHIQYNIVSRETLLDAKKHPDQYRDLVVRVAGYSAFFTALSPDAQDDIIARTEHML	soluble
MTTLNSTPRADGFHMPAEWAPQTQVWMVWPERPDNWRLGGKPAQAAHVAIAKAIARFEPVTVAVSAAQYDNARARLDMPNIRVVEMSSNDAWVRDSGPTFVINDRGELRGVNWEFNAWGGFDGGLYAPWNLDSQVGSKVLEIERCPRYATQGFVLEGGSIHVDGEGTLITTEECLLNRNRNPHLTREQIEAVLSDYLAVDKIIWLPDGLFNDETDGHVDNFCCYIRPGEVLLAWTDDPEDPNYPRCHAALSILENTRDAQGRAFIVHKMPIPGPLFATEEECAGVDQVHGSQERNPSVRLAGSYVNFLIVNGGIIAPSFDDPMDEKAREILQKLFPEHEVVMAPGRELLLGGGNIHCLTQQQPAPFKALEHHHHHH	soluble
MTTLTLNTSLLSSRRILAAFSGGLDSTVLLHQLVLWRERHPDVTLRAIHIHHGLSPHADSWVRHCETVCERWQVPLVVERVTLADNGLGIEAHAREARYRAFAQTLLPGEVLATAQHLDDQCETFLLALKRGSGPAGLSAMGERSPFAGTLLLRPLLRETRKTLEQWAVRHGLCWIEDESNQDDAYDRNFLRLRALPLLQQRWPHFPAAVARSATLCAEQERLLDELLASDLTDCITAEGTLRLSPLMSMSDVRRAAILRRWLAMRNAPMPSRDALERIWQEVALARDDASPCLRFGDHEIRRYQSQLWWIKSVAGQHETTVAWPVWQTPLALPAGLGTVQLVPGGELRRPREEESVSIRFKAPGVLHIVGRNGGRKLKKIWQEQGIPPWRRDTTPLLFYGETLIAAAGVFVTREGAAEDKEGVSLVWHA	not soluble
MTTNLTNSNCVEEYKENGKTKIRIKPFNALIELYHHQTPTGSIKENLDKLENYVKDVVKAKGLAIPTSGAFSNTRGTWFEVMIAIQSWNYRVKRELNDYLIIKMPNVKTFDFRKIFDNETREKLHQLEKSLLTHKQQVRLITSNPDLLIIRQKDLIKSEYNLPINKLTHENIDVALTLFKDIEGKCKWDSLVAGVGLKTSLRPDRRLQLVHEGNILKSLFAHLKMRYWNPKAEFKYYGASSEPVSKADDDALQTAATHTIVNVNSTPERAVDDIFSLTSFEDIDKMLDQIIKK	soluble
MTTNSSSNTVVVYHSGYGHTHRMAEAVAEGAEATLHAIDAEGNLSEDGWAALDAADAIIFGTPTYMGGPSWQFKKFADASSKPWFSAKWQDKVFGGFTNSASLNGDKLNTLQYLVLLAGQHGGLWVSLGIKPSNLKSSVRNDANRMGSYIAPMAQSDADAAPEEMSVGDLETARLYGARVANVARQHKSTERV	soluble
MTTRNPNRCPSHPGEILAESLEHLNASKTEIARILQISRQHLHGILKGERPVTAVTAARIGKLLGNGPALWLQLQANYDTWHALRDIDVSSIPTLTANEVDTQMEHSHS	not soluble
MTTSLHRLEALAHPARVRIVRLLAELPDEETAKDPRCGTAYGVCFCHLKEKTGLSAPTVSHHLRILREAGLVEGVRVGRWTYYRLRPGALEAVARELLGLAQRARALEERSA	soluble
MTTVFDVPAAEMIDKLAGILKENENVVPPQWAGNVKTGVHKDLPPTNDDWWYVRCAAVLRKIYTDGPIGIERLRSVYGGKKDNGSQPYHKAKGSGSIARKSVQQLEAAGFLQKVKDGRTVSAKGRSMMDNAAHELKQELLEKIPELAKYLEHHHHHH	soluble
MTVDFYSFAKGIVKGVLTPFYRIQTIGIEQFPKEGGVLLCANHISNLDPPVIGITAPRPIRFMAKEELFRAPVVKTLVKSLHAFPVKRGMNDRQALRTGLEVLKQGEVLGIFPEGTRSKDGRLKKALPGVGFFALRTDAAVVPCAIVGPYRPFVPLKVVYGAPVDMAPLRARKASPEEAADYIMDHIRRLLEEHQRA	not soluble
